What was measured:
KcsA-Shaker channels [1] = experiment: TEVC block of KcsA-Shaker channels expressed in Xenopus oocytes; assay type: cell-based
KcsA-Shaker–Y82V = experiment: TEVC equilibrium inhibition of pore mutant KcsA-Shaker-Y82V in oocytes; assay type: cell-based; details: KcsA-Shaker–Y82V vs KcsA-Shaker, 0 mV
KcsA-Shaker channels [2] = details: TEA block of KcsA-Shaker; cited from earlier work
[3] = target: KcsA-Shaker channel (KcsA pore carried in the Shaker channel) (Drosophila | not stated); experiment: […]
[4] = target: KcsA-Shaker–Y82V (Drosophila | not stated); experiment: […]
[5] = target: human Kv1.3 channel (human) (UniProt P22001); experiment: […]
[6] = target: KcsA-Shaker channel (KcsA pore carried in the Shaker channel) (Drosophila | not stated); experiment: two-electrode voltage clamp
[7] = target: human Kv1.3 channel (human) (UniProt P22001); experiment: two-electrode voltage clamp
[8] = target: KcsA-Shaker channel (KcsA pore carried in the Shaker channel) (Drosophila | not stated); experiment: two-electrode voltage clamp; remark: listed apart in the source

Sequence of human Kv1.3 channel (human) (P22001 whole entry): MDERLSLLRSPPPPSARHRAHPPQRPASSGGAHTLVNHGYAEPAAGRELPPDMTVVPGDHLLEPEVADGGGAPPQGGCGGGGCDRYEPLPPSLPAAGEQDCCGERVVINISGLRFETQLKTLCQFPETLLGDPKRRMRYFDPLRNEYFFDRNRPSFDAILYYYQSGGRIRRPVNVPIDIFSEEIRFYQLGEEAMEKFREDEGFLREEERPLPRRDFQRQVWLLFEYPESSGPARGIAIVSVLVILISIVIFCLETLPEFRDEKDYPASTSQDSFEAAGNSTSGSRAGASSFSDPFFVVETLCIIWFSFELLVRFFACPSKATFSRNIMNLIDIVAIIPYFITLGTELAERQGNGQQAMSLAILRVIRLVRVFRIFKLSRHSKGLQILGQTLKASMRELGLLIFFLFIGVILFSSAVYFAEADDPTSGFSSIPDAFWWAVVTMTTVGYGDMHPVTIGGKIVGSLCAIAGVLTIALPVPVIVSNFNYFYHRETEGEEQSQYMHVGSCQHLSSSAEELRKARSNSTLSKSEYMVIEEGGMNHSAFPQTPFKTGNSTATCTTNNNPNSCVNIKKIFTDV

Q: With CC[N+](CC)(CC)CC [TEA, tetraethylammonium] as the molecule, how does the “block of KcsA-Shaker” value (KcsA-Shaker channels [1]; 100 mM TEA) read?
A: complete

Q: And the “τoff (dissociation / unblock)” value (KcsA-Shaker channels [1]; washout of 100 mM TEA)?
A: ~ 1.3 s

Q: And the “decrease in equilibrium affinity by mutation of pore residue Tyr^82 to Val” value (KcsA-Shaker–Y82V)?
A: ~ 200 fold

Q: And the Ki (KcsA-Shaker channels [2])?
A: ~800000 nM

Q: Which results are given for HmK peptide?
A: Ki [3]: 0.94 nM; kon [3]: 1.3e+06 M⁻¹ s⁻¹; τoff [3]: 714 s; τon (5 nM HmK) [3]: 126 s; fold decrease of equilibrium affinity against KcsA-Shaker [4]: 550 fold; Ki [5]: 3.1 nM; kon [6]: 1.2e+06 M⁻¹ s⁻¹; τon (30 nM HmK, after TEA wash off) [6]: 27 s

Q: For Peptide HmK-Lys^22Asn, which Ki [3] is on record?
A: 225 nM

Q: What about the koff [3] of the same molecule?
A: 0.1 s⁻¹

Q: And the kon [3]?
A: 380000 M⁻¹ s⁻¹

Q: For Peptide HmK-Tyr^23Ala, which Ki [3] is on record?
A: 162 nM

Q: And the koff [3]?
A: 0.15 s⁻¹

Q: What about the kon [3] of the same molecule?
A: 930000 M⁻¹ s⁻¹

Q: Which fold decrease of inhibition against ShK peptide [5] does the source give for ShK-K22N peptide here?
A: 24 fold

Q: For ShK-Lys22Asn peptide, which Ki [7] is on record?
A: 1.2 nM

Q: For “T-HmK (membrane-tethered HmK, 46-residue linker) (peptide)”, which Ki [8] is on record?
A: 1.1 nM

Q: What about the Ki [6] of the same molecule?
A: 1.09 nM

Q: And the apparent first-order on rate (effective T-HmK 1 nM) [6]?
A: 0.014 s⁻¹

Q: And the apparent first-order on rate (effective T-HmK 17 nM) [6]?
A: 0.119 s⁻¹

Q: And the koff [6]?
A: 0.0073 s⁻¹

Q: And the kon [6]?
A: 6.6e+06 M⁻¹ s⁻¹

Q: And the percent of current inhibited (0.01 ng of T-HmK cRNA) [6]?
A: 2%

Q: And the percent of current inhibited (0.25 ng of T-HmK cRNA) [6]?
A: 76%

Q: What about the percent of current inhibited (0.35 ng of T-HmK cRNA) [6] of the same molecule?
A: 87%

Q: And the percent of current inhibited (0.5 ng of T-HmK cRNA) [6]?
A: > 94%

Q: And the percent of current inhibited (1 ng of T-HmK cRNA) [6]?
A: 98%

Q: What about the τon (0.25 ng of T-HmK cRNA) [6] of the same molecule?
A: 33 s

Q: And the Ki [7]?
A: 3 nM

Q: With “T-HmK variant Asn^26 to alanine (peptide)” as the molecule, how does the fold decrease of affinity against T-HmK [6] read?
A: 10 fold

Q: With “T-HmK variant Pro^8 to alanine (peptide)” as the molecule, how does the fold decrease of affinity against T-HmK [6] read?
A: 10 fold

Q: Which koff [5] does the source give for T-HmK-Lys22Asn here?
A: 0.93 s⁻¹

Q: For T-HmK–Arg^24Gln (peptide), which Ki [6] is on record?
A: 0.91 nM

Q: What about the koff [6] of the same molecule?
A: 0.0063 s⁻¹

Q: And the kon [6]?
A: 6.9e+06 M⁻¹ s⁻¹

Q: What about the fold change of apparent Ki against T-HmK [7] of the same molecule?
A: 3 fold

Q: And the percent of current blocked (0.5 ng of cRNA) [7]?
A: 68%

Q: With T-HmK–Lys^22Asn (peptide) as the molecule, how does the Ki [6] read?
A: 35 nM

Q: What about the koff [6] of the same molecule?
A: 0.11 s⁻¹

Q: What about the kon [6] of the same molecule?
A: 3.1e+06 M⁻¹ s⁻¹

Q: And the percent of current blocked (0.5 ng of cRNA) [6]?
A: < 38%

Q: And the fold change of apparent Ki against T-HmK [7]?
A: 230 fold

Q: What about the percent of current blocked (0.5 ng of cRNA) [7] of the same molecule?
A: 2%

Q: Which results are given for T-HmK–Tyr^23Ala (peptide)?
A: Ki [6]: 28 nM; koff [6]: 0.17 s⁻¹; kon [6]: 6.1e+06 M⁻¹ s⁻¹; percent of current blocked (0.5 ng of cRNA) [6]: < 38%

Q: For T-ShK (membrane-tethered ShK) (peptide), which Ki [7] is on record?
A: 0.098 nM

Q: For T-ShK–Arg^24Gln (peptide), which Ki [7] is on record?
A: 0.075 nM

Q: And the percent of current blocked (0.1 ng of cRNA) [7]?
A: 93%

Q: With T-ShK–Lys^22Asn (peptide) as the molecule, how does the Ki [7] read?
A: 0.42 nM

Q: What about the percent of current blocked (0.1 ng of cRNA) [7] of the same molecule?
A: 70%

Reference: article PMC7056315 (Science Advances, 2020)
